No end group written: not given here. *: point of attachment. Biotin = O=C1N[C@H]2[C@H](CS[C@H]2CCCCC(=O)*)N1
Key:
[1] = molecular target: T1, asyn_113-127_114A (human); assay: Ala-scan peptide ELISA, row G, run 1
T1 construct: substitution is already in the entry; also called pep3
T1 peptide: Biotin-LADMPVDPDNEAYEM
Experimental: (§1) 96-well Nunc plates were coated with 50 μL per well of 1 μg/mL streptavidin (from Jackson Immuno Research Laboratory) in PBS at 4° C. overnight. The plates were washed three times with PBST, and blocked with PBS containing 3% BSA at room temperature for 1 hour. The N-terminal biotinylated peptides were dissolved in Milli Q water to a concentration of 2 mg/mL, then further diluted to a concentration of 2 μg/mL with PBS. 50 μl of the diluted peptide was applied to the streptavidin-coated plates and incubated at 4° C. overnight. 2 μg/mL of biotinylated human alpha-synuclein was used as the positive control. The plates were washed three times with PBST before use. Purified antibody was diluted by serial dilution methods, from 20 μg/mL to 1 ng/mL, and 50 μL of the antibody solution was added to the peptide-coated wells. The plates were incubated for 1 hour at room temperature, then washed three times with PBST. Secondary detection antibody (goat anti-rat HRP (obtained from Southern Biotech)) was added with 1:5,000 dilutions and incubated for 1 hour at room temperature, then washed three times with PBST. Plates were developed with 50 μL/well of TMB substrate (Thermo Fisher) and quenched with 50 μL/well of 1 N sulfuric acid. The signal was quantified on a BioTek® plate reader at A450. A parallel repeat was performed for each peptide in a separate plate.

[2] = molecular target: T2, asyn_113-127_113A (human); assay: Ala-scan peptide ELISA, row G, run 1
T2 construct: substitution is already in the entry; also called pep2
T2 peptide: Biotin-AEDMPVDPDNEAYEM
Experimental: as §1

[3] = molecular target: T3, asyn_113-127_123A (human); assay: Ala-scan peptide ELISA, row G, run 1
T3 construct: substitution is already in the entry; also called pep12
T3 peptide: Biotin-LEDMPVDPDNAAYEM
Experimental: as §1

[4] = molecular target: T4, asyn_113-127_116A (human); assay: Ala-scan peptide ELISA, row H, run 1
T4 construct: substitution is already in the entry; also called pep5
T4 peptide: Biotin-LEDAPVDPDNEAYEM
Experimental: as §1

[5] = molecular target: T5, asyn_113-127_126A (human); assay: Ala-scan peptide ELISA, row H, run 1
T5 construct: substitution is already in the entry; also called pep16
T5 peptide: Biotin-LEDMPVDPDNEAYAM
Experimental: as §1

[6] = molecular target: T6, asyn_113-127_119A (human); assay: Ala-scan peptide ELISA, row H, run 1
T6 construct: substitution is already in the entry; also called pep8
T6 peptide: Biotin-LEDMPVAPDNEAYEM
Experimental: as §1

[7] = molecular target: T7, asyn_113-127_115A (human); assay: Ala-scan peptide ELISA, row H, run 1
T7 construct: substitution is already in the entry; also called pep4
T7 peptide: Biotin-LEAMPVDPDNEAYEM
Experimental: as §1

[8] = molecular target: T1, asyn_113-127_114A; assay: Ala-scan peptide ELISA, row H, run 1
Experimental: as §1

[9] = molecular target: T8, asyn_113-127_117A (human); assay: Ala-scan peptide ELISA, row H, run 1
T8 construct: substitution is already in the entry; also called pep6
T8 peptide: Biotin-LEDMAVDPDNEAYEM
Experimental: as §1

[10] = molecular target: T9, asyn_113-127_121A (human); assay: Ala-scan peptide ELISA, row H, run 1
T9 construct: substitution is already in the entry; also called pep10
T9 peptide: Biotin-LEDMPVDPANEAYEM
Experimental: as §1

[11] = molecular target: T10, asyn_113-127_118A (human); assay: Ala-scan peptide ELISA, row H, run 1
T10 construct: substitution is already in the entry; also called pep7
T10 peptide: Biotin-LEDMPADPDNEAYEM
Experimental: as §1

[12] = molecular target: T11, asyn_113-127 (human); assay: Ala-scan peptide ELISA, row H, run 1
T11 construct: also called pep1
T11 peptide: Biotin-LEDMPVDPDNEAYEM
Experimental: as §1

[13] = molecular target: T12, asyn_113-127_120A (human); assay: Ala-scan peptide ELISA, row H, run 1
T12 construct: substitution is already in the entry; also called pep9
T12 peptide: Biotin-LEDMPVDADNEAYEM
Experimental: as §1

[14] = molecular target: T13, asyn_113-127_124G (human); assay: Ala-scan peptide ELISA, row H, run 1
T13 construct: substitution is already in the entry; also called pep13
T13 peptide: Biotin-LEDMPVDPDNEGYEM
Experimental: as §1

[15] = molecular target: T14, asyn_113-127_124P (human); assay: Ala-scan peptide ELISA, row H, run 1
T14 construct: substitution is already in the entry; also called pep14
T14 peptide: Biotin-LEDMPVDPDNEPYEM
Experimental: as §1

[16] = molecular target: T2, asyn_113-127_113A; assay: Ala-scan peptide ELISA, row H, run 1
Experimental: as §1

[17] = molecular target: T15, asyn_113-127_125A (human); assay: Ala-scan peptide ELISA, row H, run 1
T15 construct: substitution is already in the entry; also called pep15
T15 peptide: Biotin-LEDMPVDPDNEAAEM
Experimental: as §1

[18] = molecular target: biotinylated human alpha-synuclein (human, UniProt P37840 1-140); assay: Ala-scan peptide ELISA, row H, run 1
Experimental: as §1

[19] = molecular target: T3, asyn_113-127_123A; assay: Ala-scan peptide ELISA, row H, run 1
Experimental: as §1

[20] = molecular target: T16, asyn_113-127_127A (human); assay: Ala-scan peptide ELISA, row H, run 1
T16 construct: substitution is already in the entry; also called pep17
T16 peptide: Biotin-LEDMPVDPDNEAYEA
Experimental: as §1

[21] = molecular target: T17, asyn_113-127_122A (human); assay: Ala-scan peptide ELISA, row H, run 1
T17 construct: substitution is already in the entry; also called pep11
T17 peptide: Biotin-LEDMPVDPDAEAYEM
Experimental: as §1

[22] = molecular target: T18, alpha-synuclein peptide 1-95 (human); assay: peptide ELISA
T18 construct: synthetic peptide coated on plate
Experimental: (§2) 96-well Nunc plates were coated with 1 pg/mL of the indicated synthetic peptide in PBS 50 μL/well overnight. The plates were washed three times with PBST, then blocked with 150 μL of 3% BSA in PBS for 1 hour. Purified antibody was diluted by serial dilution methods, from 10 pg/mL to 0.6 ng/ml, and 50 μL of the antibody solution was added to the peptide-coated wells. The plates were incubated for 1 hour at room temperature, then washed three times with PBST. Secondary detection antibody, goat anti-rat HRP (obtained from Southern Biotech) 1:5,000 diluted in BSA-PBS, was added to a concentration of 50 μL/well. Plates were incubated for one hour and washed three times with PBST. Plates were then developed with 50 μL/well of TMB substrate (obtained from Thermo Fisher) and quenched with 50 μL/well of 1 N sulfuric acid. The signal was quantified on a BioTek® plate reader at A450.

[23] = molecular target: alpha-synuclein peptide 1-112 (human); assay: peptide ELISA
Experimental: as §2

[24] = molecular target: T19, alpha-synuclein peptide 1-61 (human); assay: peptide ELISA
T19 construct: synthetic peptide coated on plate
Experimental: as §2

[25] = molecular target: T4, asyn_113-127_116A; assay: Ala-scan peptide ELISA, row C, run 1
Experimental: as §1

[26] = molecular target: T5, asyn_113-127_126A; assay: Ala-scan peptide ELISA, row C, run 1
Experimental: as §1

[27] = molecular target: T6, asyn_113-127_119A; assay: Ala-scan peptide ELISA, row C, run 1
Experimental: as §1

[28] = molecular target: T7, asyn_113-127_115A; assay: Ala-scan peptide ELISA, row C, run 1
Experimental: as §1

[29] = molecular target: T1, asyn_113-127_114A; assay: Ala-scan peptide ELISA, row C, run 1
Experimental: as §1

[30] = molecular target: T8, asyn_113-127_117A; assay: Ala-scan peptide ELISA, row C, run 1
Experimental: as §1

[31] = molecular target: T9, asyn_113-127_121A; assay: Ala-scan peptide ELISA, row C, run 1
Experimental: as §1

[32] = molecular target: T10, asyn_113-127_118A; assay: Ala-scan peptide ELISA, row C, run 1
Experimental: as §1

[33] = molecular target: T11, asyn_113-127; assay: Ala-scan peptide ELISA, row C, run 1
Experimental: as §1

[34] = molecular target: T12, asyn_113-127_120A; assay: Ala-scan peptide ELISA, row C, run 1
Experimental: as §1

[35] = molecular target: T14, asyn_113-127_124P; assay: Ala-scan peptide ELISA, row C, run 1
Experimental: as §1

[36] = molecular target: T2, asyn_113-127_113A; assay: Ala-scan peptide ELISA, row C, run 1
Experimental: as §1

B1: 20H4 (antibody, rat IgG2b, V domains shown)
VH: AVQLVESGGGLVQPKESLKISCAASGFTFSNAAMYWVRQAPGKGLELLARIRTKPNNYATYHADSVKGRFTISRDDSQSMVYLHMGNLKTEDTAMYYCTADMATGDYWGPGVMVTVSS
VL: DIQMTQSPPVLSVSVGDRVTLSCKASQNINKNLDWYQQKHGEAPKPLIYSTNNLQTGVPSRFSGSGSGTDYTLTISSLQPEDVATYYCYQYKSAWTFGGGTKLELR
notes: also called clone 20H4; rat 20H4
B1 showed an A450 [1] of 0.083 OD, an A450 [2] of 0.095 OD and an A450 [3] of 0.093 OD. For the same binder, the A450 [4] was 0.071 OD, the A450 [5] was 0.07 OD and the A450 [6] was 0.048 OD. It also gave an A450 [7] of 0.051 OD, an A450 [8] of 0.061 OD and an A450 [9] of 0.071 OD. It also gave an A450 [10] of 0.068 OD, an A450 [11] of 0.069 OD and an A450 [12] of 0.063 OD. It also gave an A450 [13] of 0.063 OD, an A450 [14] of 0.065 OD and an A450 [15] of 0.049 OD. It also gave an A450 [16] of 0.068 OD, an A450 [17] of 0.047 OD and an A450 [18] of 0.086 OD. It also gave an A450 [19] of 0.068 OD, an A450 [20] of 0.066 OD and an A450 [21] of 0.049 OD. For the same binder, the “antibody concentration at which ELISA is positive” value (“antibody concentration” for short) [22] was greater than 2600 ng/mL, the “antibody concentration” value [23] was greater than 2600 ng/mL and the “antibody concentration” value [24] was greater than 2600 ng/mL. The A450 [25] was 0.48 OD, the A450 [26] was 0.371 OD and the A450 [27] was 0.059 OD. For the same binder, the A450 [28] was 0.417 OD, the A450 [29] was 0.417 OD and the A450 [30] was 0.494 OD. The A450 [31] was 0.443 OD, the A450 [32] was 0.403 OD and the A450 [33] was 0.48 OD. It also gave an A450 [34] of 0.323 OD, an A450 [35] of 0.051 OD and an A450 [36] of 0.498 OD.

Reference: patent publication US20230074436A1 (DENALI THERAPEUTICS, published 2023)
